One block for each binder: values may come before it.
Molecular target: T1, IL-18 receptor (IL-18Rα/IL-18Rβ) overexpressed on HEK-Blue IL-18 cells (Homo sapiens (Human), UniProt Q13478 19-541; O95256 20-599)
T1 sequence 1: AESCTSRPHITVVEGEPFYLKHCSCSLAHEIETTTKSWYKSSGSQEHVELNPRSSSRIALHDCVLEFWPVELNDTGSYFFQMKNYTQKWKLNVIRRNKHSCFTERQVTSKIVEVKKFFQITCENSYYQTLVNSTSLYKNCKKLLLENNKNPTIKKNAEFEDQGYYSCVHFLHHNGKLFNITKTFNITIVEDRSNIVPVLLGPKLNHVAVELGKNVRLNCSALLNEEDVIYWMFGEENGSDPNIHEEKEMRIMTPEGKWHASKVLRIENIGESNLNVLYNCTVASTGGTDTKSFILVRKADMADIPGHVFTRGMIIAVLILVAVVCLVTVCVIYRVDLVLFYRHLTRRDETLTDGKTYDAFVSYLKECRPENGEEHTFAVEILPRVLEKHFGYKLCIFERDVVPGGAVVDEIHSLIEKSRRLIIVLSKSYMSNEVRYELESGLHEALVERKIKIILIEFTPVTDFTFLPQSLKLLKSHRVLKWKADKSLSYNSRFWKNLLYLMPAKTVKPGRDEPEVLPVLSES
T1 sequence 2: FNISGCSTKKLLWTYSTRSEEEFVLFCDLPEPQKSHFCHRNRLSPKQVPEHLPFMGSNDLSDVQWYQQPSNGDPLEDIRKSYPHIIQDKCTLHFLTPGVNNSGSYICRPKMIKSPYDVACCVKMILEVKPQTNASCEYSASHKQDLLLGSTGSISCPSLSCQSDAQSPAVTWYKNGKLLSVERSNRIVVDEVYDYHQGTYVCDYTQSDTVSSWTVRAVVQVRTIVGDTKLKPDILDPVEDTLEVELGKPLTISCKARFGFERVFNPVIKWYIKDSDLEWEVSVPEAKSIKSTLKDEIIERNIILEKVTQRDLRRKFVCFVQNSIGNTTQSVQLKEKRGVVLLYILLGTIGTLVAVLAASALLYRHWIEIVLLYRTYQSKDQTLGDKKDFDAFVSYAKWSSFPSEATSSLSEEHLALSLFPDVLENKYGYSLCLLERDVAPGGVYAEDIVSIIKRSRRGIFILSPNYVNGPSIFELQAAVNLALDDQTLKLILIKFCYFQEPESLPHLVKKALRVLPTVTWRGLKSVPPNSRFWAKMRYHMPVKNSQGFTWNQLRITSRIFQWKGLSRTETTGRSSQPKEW
Assay: cell-based or functional assay

HEK-Blue IL-18: Abs 405: 0.59 Abs
HEK-Blue IL-18: Fold over Background: 4.9 fold
B1: DGL173 (bispecific antibody)
heavy 1: QVQLVESGGGLVQAGGSLRLSCVASGTFFQIHVMGWYRQAPGKQRELVAFIINNGGTRYADSVKGRFTISRDYAKNTVYLQMNSLKPEDTAVYYCNTEGTYRGRYSTDNWGQGTQVTVSSGGGSQVQLVESGGGLVQAGGSLRLSCAASGRTFSKHAMGWFRQAPGKEREFVAAIDWSGGSTYYADSVKGRFTISRDNAKNTVYLQMDSLKPEDTAVYYCAADSYTDYAQLWLPELESEYDYWGQGTQVTVSSDKTHTCPPCPAPEAAGGPSVFLFPPKPKDTLMISRTPEVTCVVVDVSHEDPEVKFNWYVDGVEVHNAKTKPREEQYNSTYRVVSVLTVLHQDWLNGKEYKCKVSNKALPAPIEKTISKAKGQPREPQVCTLPPSRDELTKNQVSLSCAVKGFYPSDIAVEWESNGQPENNYKTTPPVLDSDGSFFLVSKLTVDKSRWQQGNVFSCSVMHEALHNHYTQKSLSLSPG
heavy 2: not shown

HEK-Blue IL-18: Abs 405: 0.66 Abs
HEK-Blue IL-18: Fold over Background: 5.5 fold
B2: DGL167 (bispecific antibody)
heavy 1: QVQLVESGGGLVQAGGSLRLSCAASGRTFSKHAMGWFRQAPGKEREFVAAIDWSGGSTYYADSVKGRFTISRDNAKNTVYLQMDSLKPEDTAVYYCAADSYTDYAQLWLPELESEYDYWGQGTQVTVSSGGGSQVQLQESGGGLVQAGGSLKLSCQASGLTFKRNTMGWFRQAPGKEREFVAHFLWTGGETDYADAVKGRFTISRDNAKNTVYLQMNSLKPEDTAVYFCAANYAGYRIDGYQYWGQGTQVTVSSDKTHTCPPCPAPEAAGGPSVFLFPPKPKDTLMISRTPEVTCVVVDVSHEDPEVKFNWYVDGVEVHNAKTKPREEQYNSTYRVVSVLTVLHQDWLNGKEYKCKVSNKALPAPIEKTISKAKGQPREPQVCTLPPSRDELTKNQVSLSCAVKGFYPSDIAVEWESNGQPENNYKTTPPVLDSDGSFFLVSKLTVDKSRWQQGNVFSCSVMHEALHNHYTQKSLSLSPG
heavy 2: not shown

HEK-Blue IL-18: Abs 405: 1.02 Abs
HEK-Blue IL-18: Fold over Background: 8.5 fold
B3: DGL172 (bispecific antibody)
heavy 1: QLQLVESGGGLVQAGGSLRLSCAASRSITFSHNVMGWYRQAPGKQRELVASIGSGGSTNYVDSVKGRATISRDNAKKTVYLQMNSLKPEDTAVYYCGVVVGVYRGSLGQGTQVTVSSDKGPSVFPLAPEPKSSQVQLQESGGGLVQAGGSLRLSCQASGSIATINGMRWWRQAPGKERELVATINSGGSSNYADSVKGRFTISRDNASHTVSLQMNSLKPEDTAVYYCNLYVYSQFPPFSVDDYWGQGARVTVSSDKTHTCPPCPAPEAAGGPSVFLFPPKPKDTLMISRTPEVTCVVVDVSHEDPEVKFNWYVDGVEVHNAKTKPREEQYNSTYRVVSVLTVLHQDWLNGKEYKCKVSNKALPAPIEKTISKAKGQPREPQVCTLPPSRDELTKNQVSLSCAVKGFYPSDIAVEWESNGQPENNYKTTPPVLDSDGSFFLVSKLTVDKSRWQQGNVFSCSVMHEALHNHYTQKSLSLSPG
heavy 2: not shown

HEK-Blue IL-18: Abs 405: 0.62 Abs
HEK-Blue IL-18: Fold over Background: 5.1 fold
B4: DGL168 (bispecific antibody)
heavy 1: QVQLVESGGGLVQAGGSLRLSCAASGRTFSSYNMGWFRQAPGKERESVAAISWSGGSSYYADSVKGRFTISRDNAKPTVYLQMNSLKPEDTAVYYCAADRDSEEWDGSSWFFKSDYWGQGTQVTVSSGGGSQVQLVESGGGLVQTGGPLRLSCAASGGTFSRYTMGWFRQAPGKEREYVAAISWRGSSIYYADAVKGRFTISRDSAKSTVYLQMNNLNSDDTAVYYCAADRTDLPRNAGEYGYWGQGTQVTVSSDKTHTCPPCPAPEAAGGPSVFLFPPKPKDTLMISRTPEVTCVVVDVSHEDPEVKFNWYVDGVEVHNAKTKPREEQYNSTYRVVSVLTVLHQDWLNGKEYKCKVSNKALPAPIEKTISKAKGQPREPQVCTLPPSRDELTKNQVSLSCAVKGFYPSDIAVEWESNGQPENNYKTTPPVLDSDGSFFLVSKLTVDKSRWQQGNVFSCSVMHEALHNHYTQKSLSLSPG
heavy 2: not shown

HEK-Blue IL-18: Abs 405: 0.22 Abs
HEK-Blue IL-18: Fold over Background: 1.8 fold
B5: DGL169 (bispecific antibody)
heavy 1: QVQLVESGGGLVQAGGSLRLSCAASGRTFSSYTMGWFRQAPGKEREFVAAISWSAGRTYYADSVKGRFTISRDNAKNTVYLQMNSLKPEDTAVYFCAAEEAPDWAPIDCSGYGCLSLYDYWGQGTQVTVSSGGGSQVQLVESGGGLVQAGGSLRLSCAASQTGFNMNRMGWYRQAPGKQRELVATITGGGSTTYADSVKGRFDISRGNVENNLYLQMNSLKPEDTAVYYCNALLFGRDYWGQGTQVTVSSDKTHTCPPCPAPEAAGGPSVFLFPPKPKDTLMISRTPEVTCVVVDVSHEDPEVKFNWYVDGVEVHNAKTKPREEQYNSTYRVVSVLTVLHQDWLNGKEYKCKVSNKALPAPIEKTISKAKGQPREPQVCTLPPSRDELTKNQVSLSCAVKGFYPSDIAVEWESNGQPENNYKTTPPVLDSDGSFFLVSKLTVDKSRWQQGNVFSCSVMHEALHNHYTQKSLSLSPG
heavy 2: not shown

HEK-Blue IL-18: Abs 405: 0.23 Abs
HEK-Blue IL-18: Fold over Background: 1.9 fold
B6: DGL170 (bispecific antibody)
heavy 1: QVQLVESGGGLVQAGGSLRLSCVASGTFFQIHVMGWYRQAPGKQRELVAFIINNGGTRYADSVKGRFTISRDYAKNTVYLQMNSLKPEDTAVYYCNTEGTYRGRYSTDNWGQGTQVTVSSDKGPSVFPLAPEPKSSQVQLVESGGGLVQAGGSLRLSCAASGRTFSKHAMGWFRQAPGKEREFVAAIDWSGGSTYYADSVKGRFTISRDNAKNTVYLQMDSLKPEDTAVYYCAADSYTDYAQLWLPELESEYDYWGQGTQVTVSSDKTHTCPPCPAPEAAGGPSVFLFPPKPKDTLMISRTPEVTCVVVDVSHEDPEVKFNWYVDGVEVHNAKTKPREEQYNSTYRVVSVLTVLHQDWLNGKEYKCKVSNKALPAPIEKTISKAKGQPREPQVCTLPPSRDELTKNQVSLSCAVKGFYPSDIAVEWESNGQPENNYKTTPPVLDSDGSFFLVSKLTVDKSRWQQGNVFSCSVMHEALHNHYTQKSLSLSPG
heavy 2: not shown

HEK-Blue IL-18: Abs 405: 1.14 Abs
HEK-Blue IL-18: Fold over Background: 9.5 fold
B7: DGL174 (bispecific antibody)
heavy 1: EVQLVESGGGLVQAGGSLRLSCAASGSISSRDTMGWYRQAPGKQREMVAVISSSGNTNYADSVLGRFTISRDNAKNTVDLQMNSLKPEDTAIYKCYAHRTYGVDYWGKGTLVTVSSGGGSQVQLVESGGGLVQAGGSLRLSCAASGRTFSSYTMGWFRQAPGKEREFVAAISWSAGRTYYADSVKGRFTISRDNAKNTVYLQMNSLKPEDTAVYFCAAEEAPDWAPIDCSGYGCLSLYDYWGQGTQVTVSSDKTHTCPPCPAPEAAGGPSVFLFPPKPKDTLMISRTPEVTCVVVDVSHEDPEVKFNWYVDGVEVHNAKTKPREEQYNSTYRVVSVLTVLHQDWLNGKEYKCKVSNKALPAPIEKTISKAKGQPREPQVCTLPPSRDELTKNQVSLSCAVKGFYPSDIAVEWESNGQPENNYKTTPPVLDSDGSFFLVSKLTVDKSRWQQGNVFSCSVMHEALHNHYTQKSLSLSPG
heavy 2: not shown

HEK-Blue IL-18: Abs 405: 0.12 Abs
HEK-Blue IL-18: Fold over Background: 1 fold
B8: DGL166 (bispecific antibody)
heavy 1: EVQLVESGGGLVQPGGSLRLSCAASGFFLDDYVLGWFRQAPGKPREGVSCISSRGRYLNYAETVKGRFTISRSNAKNTVYLQMNNLEPEDTAVYYCAAVRRVSEVCKLAEDDFASWGQGTQVTVSSGGGSQVQLVESGGGLVQAGDSLRLSCVASERTFSSYTMGWFRQAPGKEREFTAALSWWNGGISTAYADSVKGRFTISRDNAKNTVYLQMNSLKTEDTALYYCAAARDRMPRADEYDYWGQGTQVTVSSDKTHTCPPCPAPEAAGGPSVFLFPPKPKDTLMISRTPEVTCVVVDVSHEDPEVKFNWYVDGVEVHNAKTKPREEQYNSTYRVVSVLTVLHQDWLNGKEYKCKVSNKALPAPIEKTISKAKGQPREPQVCTLPPSRDELTKNQVSLSCAVKGFYPSDIAVEWESNGQPENNYKTTPPVLDSDGSFFLVSKLTVDKSRWQQGNVFSCSVMHEALHNHYTQKSLSLSPG
heavy 2: not shown

HEK-Blue IL-18: Abs 405: 0.53 Abs
HEK-Blue IL-18: Fold over Background: 4.3 fold
B9: DGL171 (bispecific antibody)
heavy 1: EVQLVESGGGLVQAGGSLRLSCAASGSISSRDTMGWYRQAPGKQREMVAVISSSGNTNYADSVLGRFTISRDNAKNTVDLQMNSLKPEDTAIYKCYAHRTYGVDYWGKGTLVTVSSDKGPSVFPLAPEPKSSQVQLVESGGGLVQAGGSLRLSCAASGRTFSSYTMGWFRQAPGKEREFVAAISWSAGRTYYADSVKGRFTISRDNAKNTVYLQMNSLKPEDTAVYFCAAEEAPDWAPIDCSGYGCLSLYDYWGQGTQVTVSSDKTHTCPPCPAPEAAGGPSVFLFPPKPKDTLMISRTPEVTCVVVDVSHEDPEVKFNWYVDGVEVHNAKTKPREEQYNSTYRVVSVLTVLHQDWLNGKEYKCKVSNKALPAPIEKTISKAKGQPREPQVCTLPPSRDELTKNQVSLSCAVKGFYPSDIAVEWESNGQPENNYKTTPPVLDSDGSFFLVSKLTVDKSRWQQGNVFSCSVMHEALHNHYTQKSLSLSPG
heavy 2: not shown
